The values below come from paper PMC8809517, “Cofactor-independent RNA editing by a synthetic S-type PPR protein”.

Common to all, as to experiment: high-throughput RNA pulldown from lysate on Ni-NTA beads; HRP: 50 mM Tris pH 8, 150 mM NaCl, 1 mM beta-mercaptoethanol, 50 ug/ml BSA, 3 ug/ml yeast RNA, 0.5% heparin; ITC and FP: Tris pH 8, 200 mM KCl, 5% glycerol; MST: 50 mM Tris pH 8, 200 mM NaCl, 1 mM DTT, BSA, heparin, 0.05% Tween 20
Holding throughout (settings): tags: N-terminal His-eGFP

Data set [1] concerns the target T1, GFP-9S library array, motif 4 ND N98S;D124K (synthetic construct, N98S;D124K).
T1 chain: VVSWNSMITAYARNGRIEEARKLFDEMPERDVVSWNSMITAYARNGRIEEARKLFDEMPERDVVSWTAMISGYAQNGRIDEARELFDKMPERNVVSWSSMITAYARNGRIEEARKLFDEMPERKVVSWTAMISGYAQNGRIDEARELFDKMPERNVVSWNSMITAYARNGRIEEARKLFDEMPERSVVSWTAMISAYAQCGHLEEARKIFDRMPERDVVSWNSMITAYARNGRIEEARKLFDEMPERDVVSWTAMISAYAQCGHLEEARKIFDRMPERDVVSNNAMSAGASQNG

Data set [2] has as its target T2, GFP-9S library array, motif 4 ND N98T;D124E (synthetic construct, N98T;D124E).
T2 chain: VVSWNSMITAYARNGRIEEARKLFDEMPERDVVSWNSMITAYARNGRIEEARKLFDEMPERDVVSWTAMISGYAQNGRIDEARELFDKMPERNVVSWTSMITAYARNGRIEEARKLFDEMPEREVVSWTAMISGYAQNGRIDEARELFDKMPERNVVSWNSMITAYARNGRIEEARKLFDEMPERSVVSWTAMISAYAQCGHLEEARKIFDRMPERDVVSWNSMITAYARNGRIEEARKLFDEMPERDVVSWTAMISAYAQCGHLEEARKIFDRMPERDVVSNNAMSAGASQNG

The target in data set [3] is T3, GFP-9S library array, motif 4 ND N98C;D124K (synthetic construct, N98C;D124K).
T3 chain: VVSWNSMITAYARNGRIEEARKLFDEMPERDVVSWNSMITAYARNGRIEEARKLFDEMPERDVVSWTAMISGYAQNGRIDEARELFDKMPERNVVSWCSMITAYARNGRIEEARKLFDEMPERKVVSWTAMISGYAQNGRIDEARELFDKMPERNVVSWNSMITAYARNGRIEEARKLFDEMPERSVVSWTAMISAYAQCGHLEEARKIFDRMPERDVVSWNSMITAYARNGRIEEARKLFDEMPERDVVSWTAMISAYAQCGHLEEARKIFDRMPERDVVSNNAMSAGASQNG

Data set [4] addresses T4, GFP-9S library array, motif 4 ND N98G;D124S (synthetic construct, N98G;D124S).
T4 chain: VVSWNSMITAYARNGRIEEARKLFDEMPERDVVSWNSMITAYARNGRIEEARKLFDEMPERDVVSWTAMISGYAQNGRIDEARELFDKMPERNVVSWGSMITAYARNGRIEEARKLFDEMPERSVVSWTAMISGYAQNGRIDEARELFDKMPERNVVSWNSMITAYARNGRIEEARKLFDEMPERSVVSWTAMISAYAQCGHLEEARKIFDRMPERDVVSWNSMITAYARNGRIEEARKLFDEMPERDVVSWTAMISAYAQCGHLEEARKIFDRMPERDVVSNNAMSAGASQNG

Data set [5] addresses T5, GFP-9S library array, motif 4 ND N98S;D124G (synthetic construct, N98S;D124G).
T5 chain: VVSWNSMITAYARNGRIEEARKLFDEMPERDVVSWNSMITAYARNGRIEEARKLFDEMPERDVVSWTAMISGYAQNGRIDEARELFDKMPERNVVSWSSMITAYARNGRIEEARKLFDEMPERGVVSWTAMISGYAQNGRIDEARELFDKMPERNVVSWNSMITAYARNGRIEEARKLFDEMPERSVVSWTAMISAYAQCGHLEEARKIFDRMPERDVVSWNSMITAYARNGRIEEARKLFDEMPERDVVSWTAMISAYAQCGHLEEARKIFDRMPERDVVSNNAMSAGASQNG

A word on the Kd: it is the constant that tells how readily two partners part at equilibrium.

As for AUUACACGUGA (ssRNA) [Cy5-rpoA], the Kd in data set [1] (label: 5' Cy5) came to 86.7 nM; in data set [2] (label: 5' Cy5), 258 nM; in data set [3] (label: 5' Cy5) it was 96.2 nM; in data set [4] (label: 5' Cy5), 629 nM; in data set [5] (label: 5' Cy5), 181 nM.

Turning to AUUAGACGUGA (ssRNA) [Cy5-rpoA-G], the dissociation constant Kd in data set [1] (label: 5' Cy5) worked out at 104 nM; in data set [2] (label: 5' Cy5), 13.2 nM; in data set [3] (label: 5' Cy5), 91.1 nM; in data set [4] (label: 5' Cy5) it was 549 nM; in data set [5] (label: 5' Cy5), 157 nM.

In the case of AUUAAACGUGA (ssRNA) [IR-rpoA-A], the Kd worked out at 134 nM in data set [1] (label: 5' IRDye 800CW); 185 nM in data set [2] (label: 5' IRDye 800CW); 66.3 nM in data set [3] (label: 5' IRDye 800CW); 564 nM in data set [4] (label: 5' IRDye 800CW); 122 nM in data set [5] (label: 5' IRDye 800CW).

On to AUUAUACGUGA (ssRNA) [IR-rpoA-U], for which the Kd came to 105 nM in data set [1] (label: 5' IRDye 800CW); 134 nM in data set [2] (label: 5' IRDye 800CW); 139 nM in data set [3] (label: 5' IRDye 800CW); 749 nM in data set [4] (label: 5' IRDye 800CW); 182 nM in data set [5] (label: 5' IRDye 800CW).
